Measured values taken from patent US8598081B2, “Specific delivery of agrochemicals” (priority 2010, dated 2013).

Assays:
[1] = tested on: leaf surface of potato leaves; assay: VHH binding to non-fixed leaf discs, potato; parameters: species or system potato (variety Desiree); conditions: 5 μg/ml, detection with anti-histidine Alexa-488
Description: VHH binding to non-fixed leaf discs of potato (variety Desiree), black nightshade, grass, wheat or azalea was investigated. For comparison, binding of CBM3a to non-fixed leaf discs of potato (variety Desiree) was analyzed in parallel. Leaf discs were prepared by punching a fresh potato leaf with a 5 mm belt hole puncher tool. Leaf discs were put immediately in wells of a 96-well plate containing 200 μl per well 5% MPBS or PBS, and incubated for 30 minutes. Leaf discs were transferred to solutions containing 5 μg/ml VHH antibody fragment, respectively, 5 μg/ml CBM3a in 2% MPBS or PBS and incubated for 60-90 minutes. Unbound VHH or CBM3a proteins were removed by washing three times with 2% MPBS or PBS. Bound VHH or CBM3a proteins were detected with incubation with monoclonal mouse anti-histidine antibodies directly conjugated with Alexa-488 fluorescent dye (Abd Serotec) in 1% MPBS for 1 hour. Unbound antibodies were removed by washing three times with PBS. Leaf discs were put on glass slides, covered with cover slips, and analyzed by microscopy or on a macrozoom microscope system (Nikon) or a SP5 confocal microscope system (Leica).

gum arabic = assay: VHH binding to gum arabic in ELISA; parameters: species or system acacia tree
Description: Titration of VHH antibody fragments was performed on ELISA plates (Maxisorp, Nunc) coated with 100 μl per well 100 μg/ml gum arabic in 50 mM carbonate pH 9.6. Plates were coated at 4° C. overnight and coating was continued at room temperature for 1 hour on the next day. Plates were washed three times with PBS/0.05%-TWEEN®-20 and blocked with 5% skimmed milk in PBS for 1 hour. Four-fold serial dilutions of purified VHH antibody fragments were prepared in 1% MPBS/0.05%-TWEEN®-20 in polypropylene 96-well plates. Antibody concentrations ranged from 3 μg/ml to 12 ng/ml. Antibody dilutions were transferred to the gum arabic-coated plates and VHH antibody fragments were allowed to bind for 1 hour at room temperature. Bound VHH were detected with sequential incubations with monoclonal mouse anti-histidine antibodies (Abd Serotec) and rabbit anti-mouse IgG whole molecule antibodies conjugated with alkaline phosphatase (RaM/AP) (Sigma) in 1% MPBS/0.05%-TWEEN®-20. Unbound antibodies were removed by washing three times with PBS/0.05%-TWEEN®-20 after each antibody incubation. The plates were washed an additional two times with PBS and 100 μl pNPP disodium hexahydrate substrate (Sigma) was added to each well. The absorbance at 405 nm was measured and plotted as function of antibody concentration (see Table 1).

potato lectin = biological target: T1, potato lectin (Solanum tuberosum, UniProt Q9S8M0); assay: VHH binding to potato lectin in ELISA; conditions: Table 2; Blank (no antigen coating); VHH 3 μg/ml
T1 construct: purchased Sigma
T1 sequence (Q9S8M0 whole entry, looked up): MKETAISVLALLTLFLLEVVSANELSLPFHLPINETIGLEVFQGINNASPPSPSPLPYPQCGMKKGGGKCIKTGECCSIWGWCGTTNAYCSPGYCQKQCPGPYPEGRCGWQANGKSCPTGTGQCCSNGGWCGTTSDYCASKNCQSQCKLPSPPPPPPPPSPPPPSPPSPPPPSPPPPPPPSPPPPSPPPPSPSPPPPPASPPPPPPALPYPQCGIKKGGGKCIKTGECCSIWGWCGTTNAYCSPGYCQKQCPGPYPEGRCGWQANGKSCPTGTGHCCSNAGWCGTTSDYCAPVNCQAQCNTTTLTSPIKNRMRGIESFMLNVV
Description: ELISA plates (Maxisorp, Nunc) coated with 100 μl per well 100 μg/ml potato lectin (Sigma) in PBS were coated at 4° C. overnight and coating was continued at room temperature for 1 hour on the next day. Plates were washed three times with PBS/0.05%-TWEEN®-20 and blocked with 5% skimmed milk in PBS for 1 hour. VHH (3 μg/ml) were transferred to the potato lectin-coated plates and VHH antibody fragments were allowed to bind for 1 hour at room temperature. Bound VHH were detected with sequential incubations with monoclonal mouse anti-histidine antibodies (Abd Serotec) and rabbit anti-mouse IgG whole molecule antibodies conjugated with alkaline phosphatase (RaM/AP) (Sigma) in 1% MPBS/0.05%-TWEEN®-20. Unbound antibodies were removed by washing three times with PBS/0.05%-TWEEN®-20 after each antibody incubation. The plates were washed an additional two times with PBS and 100 μl pNPP disodium hexahydrate substrate (Sigma) was added to each well and the absorbance at 405 nm was measured (see Table 2).

absorbance at 405 nm (gum arabic; Table 2, gum arabic coating, VHH 3 μg/ml): 0.530 | absorbance at 405 nm (gum arabic; [VHH] 3 μg/ml (200 nM), gum arabic − (well without gum arabic)): 0.075 | absorbance at 405 nm (potato lectin): 0.072
B1: VHH 5D4: VHH sequence; SEQ ID NO:20 by order of the list (protein, listed as Lama glama)
VHH: QVQLQESGGGLVQPGGSLRLSCAASGFDMRRFGIGWFRQVAGKEREGVSCSNVHDGTTYYTNDVKGRFTIVRDNTKNMLYLQMNKLRPEDTAVYSCATTDCEATAWGTYRGYFGQGTQVTVSS
modifications: 5D4
binding to native potato leaf surface (fluorescence microscopy) [1]: binding leaf surface, stomata, glandular trichomes, and leaf hairs | binding to native potato leaf surface (fluorescence microscopy) ([1]; listed as 5D4): clearly binding to trichomes, stomata and cuticle
